A value given as a limit tells only on which side of the number the result lay.

The target of assay [1] is PLK1 326-603 (longer PBD construct) (human) (UniProt P53350). Briefly: competitive FP, displacement of fluorescent tracer peptide from PLK1 326-603.
In assay [2] the target is PLK1 PBD protein (residues 367-603) (human) (UniProt P53350). Put plainly: competitive FP, displacement of fluorescein tracer SEQ ID NO: 7 from PLK1 PBD (367-603).
Assay [3] shares this target. Briefly: competitive FP.

PLK1 PBD protein (residues 367-603) (human), sequence (P53350 367-603 limits assumed): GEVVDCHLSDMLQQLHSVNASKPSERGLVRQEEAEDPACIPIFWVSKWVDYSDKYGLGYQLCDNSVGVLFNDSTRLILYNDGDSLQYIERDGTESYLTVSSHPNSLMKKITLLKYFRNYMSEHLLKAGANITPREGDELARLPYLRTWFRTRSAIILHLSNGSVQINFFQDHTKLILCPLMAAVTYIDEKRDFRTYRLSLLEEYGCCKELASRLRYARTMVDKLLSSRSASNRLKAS
PLK1 326-603 (longer PBD construct) (human), sequence (P53350 326-603 limits assumed): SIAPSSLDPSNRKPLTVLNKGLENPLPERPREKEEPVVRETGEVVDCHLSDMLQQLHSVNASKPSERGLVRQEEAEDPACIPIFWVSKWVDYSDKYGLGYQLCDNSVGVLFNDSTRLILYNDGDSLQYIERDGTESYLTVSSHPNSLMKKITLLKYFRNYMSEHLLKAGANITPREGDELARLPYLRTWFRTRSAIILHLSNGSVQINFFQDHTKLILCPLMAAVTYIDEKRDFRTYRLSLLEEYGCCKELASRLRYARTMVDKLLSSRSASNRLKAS

In the case of “LLCS[pT]PNGL, native phospho-CDC25c PBD binding sequence (sample no. 292) (peptide)”, the IC50 in assay [1] was 1.3 µM; in assay [2] it was 0.42 µM.
“Ac-LLCS[pT]PNGL (sample no. 5821) (peptide)”: the 50% inhibitory concentration (IC50) in assay [2] was 0.5 µM.
Same read-out and setting: as for “3G1-S[pT]PNGL (4-ethylbenzoic acid) (Sample No. 5788) (peptide)”, the figure is 16.5 µM; as for LHS[pT]AI (sample no. 5649) (peptide), 200 µM.
As for “3G2-S[pT]PNGL (4-butylbenzoic acid) (Sample No. 5827) (peptide)”, the IC50 in assay [2] is 8.6 µM.
For “Ac-LHS[pT]AI (sample no. 5781) (peptide)”, in assay [3], the fold less potent than the parent peptide containing the N-terminal LLC came out at 6 fold and the fold more potent than the non-acetylated version (sample no. 5649) stood at 40 fold. In assay [2], the IC50 came to 5 µM.
On to “Ac-AHS[pT]AI (sample no. 5782) (peptide)”, for which the fold higher IC50 (against Ac-LHS[pT]AI, sample no. 5781) in assay [3] is 3 fold. This substance had an IC50 in assay [2] of 15 µM.
The substance “Ac-PLHS[pT]A (sample no. 5743) (peptide)” displayed an IC50 in assay [2] of 2 µM.
For “LDCS[pT]PNGL (sample no. 5795) (peptide)”, the half-maximal inhibitory concentration (IC50) in assay [2] was 3 µM.
For the substance S[pT]PNGL (sample no. 5714) (peptide), in assay [2], the IC50 was more than 600 µM.

The values above are taken from patent US20160011195A1.
